Earlier results as cited in paper PMC4482139.

Assays:
nmMLCK2 (Homo sapiens) = nmMLCK2 (Homo sapiens) (UniProt Q15746)
nmMLCK1 (Homo sapiens) = nmMLCK1 (Homo sapiens) (UniProt Q15746)

Substance: Cortactin (from UniProt Q14247)
- Kd (nmMLCK2 (Homo sapiens)): 250 nM
- Kd (nmMLCK1 (Homo sapiens)): 1000 nM
